5 molecules from US20250009801A1 (Innovent, published 2025) can be followed below.

One may read the koff as the rate constant with which the complex falls apart. As a reminder, the kon is the second-order rate constant of association.

The target of assay [1] is HB37A6 PG Ab (P329G mutated HB37A6 antibody, human IgG1). The assay is described as follows: cell-based or functional assay.
Assay [2] has as its target T1, human Claudin18.2-His (Acro, CL2-H5546) (human, UniProt P56856-2 1-261).
T1 construct: Bought reagent, amine-coupled to a CM5 chip; also called recombinant human CLDN18.2 protein; not shown: His tag
Briefly: SPR (Biacore T200), Claudin18.2-His coupled on CM5 chip, antibody in the mobile phase (avidity). On the technique in general: SPR reads the build-up and loss of mass on a sensor chip optically.

Chain of HB37A6 PG Ab (P329G mutated HB37A6 antibody, human IgG1) (heavy, as listed by the source, chain 1 of 2): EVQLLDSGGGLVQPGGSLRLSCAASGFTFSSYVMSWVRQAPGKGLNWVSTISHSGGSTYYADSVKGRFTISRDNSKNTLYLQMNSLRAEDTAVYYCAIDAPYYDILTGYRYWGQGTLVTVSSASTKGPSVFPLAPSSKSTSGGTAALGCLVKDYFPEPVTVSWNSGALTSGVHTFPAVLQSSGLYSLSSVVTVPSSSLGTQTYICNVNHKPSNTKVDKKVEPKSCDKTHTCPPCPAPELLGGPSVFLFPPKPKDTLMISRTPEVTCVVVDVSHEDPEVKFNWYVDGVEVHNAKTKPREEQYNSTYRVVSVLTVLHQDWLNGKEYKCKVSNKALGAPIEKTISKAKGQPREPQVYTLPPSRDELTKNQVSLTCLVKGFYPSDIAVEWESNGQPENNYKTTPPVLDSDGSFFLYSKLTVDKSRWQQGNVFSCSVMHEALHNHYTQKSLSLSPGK
Chain of HB37A6 PG Ab (P329G mutated HB37A6 antibody, human IgG1) (light, as listed by the source, chain 2 of 2): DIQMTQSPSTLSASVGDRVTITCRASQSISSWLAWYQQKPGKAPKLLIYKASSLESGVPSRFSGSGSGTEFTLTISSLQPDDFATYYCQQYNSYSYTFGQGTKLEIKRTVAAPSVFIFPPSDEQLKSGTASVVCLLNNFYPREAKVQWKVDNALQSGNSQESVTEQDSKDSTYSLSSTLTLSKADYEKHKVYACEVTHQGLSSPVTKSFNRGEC

B1: HuR968B CAR on CAR-T cells (receptor)
chain: EVQLVESGGGLVQPGGSLRLSCAASGFTFSRYWMNWVRQAPGKGLEWVGEITPDSSTINYAPSLKGRFTISRDNAKNSLYLQMNSLRAEDTAVYYCARPYDYGAWFASWGQGTLVTVSSGGGGSGGGGSGGGGSGGGGSQAVVTQEPSLTVSPGGTVTLTCRSSTGAVTTSNYANWVQEKPDHLFTGLIGGTNKRAPGTPARFSGSLLGGKAALTLSGAQPEDEAEYYCALWYSNHWVFGGGTKLTVLGGGGSIYIWAPLAGTCGVLLLSLVITLYCKRGRKKLLYIFKQPFMRPVQTTQEEDGCSCRFPEEEEGGCELRVKFSRSADAPAYQQGQNQLYNELNLGRREEYDVLDKRRGRDPEMGGKPRRKNPQEGLYNELQKDKMAEAYSEIGMKGERRRGKGHDGLYQGLSTATKDTYDALHMQALPPR
Consider B1, for which, in assay [1], the “proliferation of CAR-T cells on plate-bound antibody (CellTiter-Glo), 2 days, against the WT antibody” value was approximately 2 fold and the “proliferation of CAR-T cells on plate-bound antibody (CellTiter-Glo), 3 days, against the WT antibody” value is approximately 3.3 fold.

B2: Hz3G3 PG Ab (antibody, human IgG1, kappa, V domains shown)
VH: QVQLVQSGAEVKKPGASVKVSCKASGYSFTTYWMHWVRQAPGQGLEWMGLIDPSDSETRLNQKFKDRVTMTVDTSTSTVYMELSSLRSEDTAVYYCASNRWLLGWGQGTLVTVSS
VL: DIVMTQSPDSLAVSLGERATINCKSSQSLLNSGNQKNYLTWYQQKPGQPPKLLIYWASTRESGVPDRFSGSGSGTDFTLTISSLQAEDVAVYYCQNDYSYPLTFGQGTKLEIKR
notes: also called G3 PG antibody; G3 antibody
As to B2, in assay [2], the Kd came to 2.5 nM, the koff is 0.00177 s⁻¹ and the kon came to 709000 M⁻¹ s⁻¹.

B3: Hz69H9 PG Ab (P329G mutated Hz69H9 antibody, human IgG1) (antibody, V domains shown)
VH: QVQLVQSGAEVKKPGSSVKVSCKASGYSFSSYNIHWVRQAPGQGLEWMGYIAPFQGDSRYNQKFKGRVTITADKSTSTAYMELSSLRSEDTAVYYCARLNRGNSLDYWGQGTLVTVSS
VL: DIVMTQSPDSLAVSLGERATINCKSSQSLFNSGNQRNYLTWYQQKPGQPPKLLIYWASTRESGVPDRFSGSGSGTDFTLTISSLQAEDVAVYYCQNNYIYPLTFGGGTKVEIKR
notes: also called H9 PG antibody; P329G H9 antibody
Take B3: in assay [2], the Kd was less than 0.00527 nM, the koff is less than 1e-05 s⁻¹ and the kon was found to be 1.9e+06 M⁻¹ s⁻¹.

B4: Hz69H9-1.2 PG Ab (antibody, human IgG1, kappa, V domains shown)
VH: QVQLVQSGAEVKKPGSSVKVSCKASGYSFSSYNIHWVRQAPGQGLEWMGYIAPFQGDARYNQKFKGRVTITADKSTSTAYMELSSLRSEDTAVYYCARLNRGQSLDYWGQGTLVTVSS
VL: DIVMTQSPDSLAVSLGERATINCKSSQSLFNAGNQRNYLTWYQQKPGQPPKLLIYWASTRESGVPDRFSGSGSGTDFTLTISSLQAEDVAVYYCQNNYIYPLTFGGGTKVEIKR
notes: Mutant of the parent Hz69H9 with point mutations in VH or VL; also called H9-1.2 PG antibody
In assay [2], B4 yielded a Kd of 0.98 nM, a koff of 0.00185 s⁻¹ and a kon of 1.89e+06 M⁻¹ s⁻¹.

B5: Hz69H9-SA PG Ab (antibody, human IgG1, kappa, V domains shown)
VH: QVQLVQSGAEVKKPGSSVKVSCKASGYSFSSYNISWVRQAPGQGLEWMGYIAPFQGDARYNQKFKGRVTITADKSTSTAYMELSSLRSEDTAVYYCARLNRGNSLDYWGQGTLVTVSS
VL: DIVMTQSPDSLAVSLGERATINCKSSQSLFNSGNQRNYLTWYQQKPGQPPKLLIYWASTRESGVPDRFSGSGSGTDFTLTISSLQAEDVAVYYCQNNYIYPLTFGGGTKVEIKR
notes: Mutant of the parent Hz69H9 with point mutations in VH or VL; also called H9-SA PG antibody
Consider B5, for which, in assay [2], the Kd was determined as 0.325 nM, the koff worked out at 0.000153 s⁻¹ and the kon is 471000 M⁻¹ s⁻¹.
